From publication PMC4653635, “Folding of newly translated membrane protein CCR5 is assisted by the chaperonin GroEL-GroES” (Scientific Reports, 2015)

Key:
Settings in all cases: one partner purified
[1] = molecular target: T1, Human CC chemokine receptor type 5 (CCR5), C-terminally 6 × His-tagged (human, UniProt P51681 1-352); assay: quartz crystal microbalance (QCM); CCR5 made with GroEL-GroES added to the cell-free reaction; supernatant diluted 20 times and immobilised on a Q-Sense His-tag Capturing Sensor; CCL11 flowed over; 25 °C; 25 mM HEPES, 0.12 M NaCl, 0.2% Brij35, pH 7.6; 1:1 binding model
T1 construct: CC chemokine receptor type 5 (CCR5), human; 352 amino acids, 40.5 kDa as printed; cloned in pIVEX2.3d; The same construct was made with no chaperonin, with GroEL-GroES (0.04:0.08 uM) or with GroEL alone (0.04 uM) added to the cell-free reaction; these three samples are kept apart as assays; For one gel, BODIPY-labelled lysines were incorporated during translation; also called CCR5 receptor; …
T1 sequence (P51681 whole entry): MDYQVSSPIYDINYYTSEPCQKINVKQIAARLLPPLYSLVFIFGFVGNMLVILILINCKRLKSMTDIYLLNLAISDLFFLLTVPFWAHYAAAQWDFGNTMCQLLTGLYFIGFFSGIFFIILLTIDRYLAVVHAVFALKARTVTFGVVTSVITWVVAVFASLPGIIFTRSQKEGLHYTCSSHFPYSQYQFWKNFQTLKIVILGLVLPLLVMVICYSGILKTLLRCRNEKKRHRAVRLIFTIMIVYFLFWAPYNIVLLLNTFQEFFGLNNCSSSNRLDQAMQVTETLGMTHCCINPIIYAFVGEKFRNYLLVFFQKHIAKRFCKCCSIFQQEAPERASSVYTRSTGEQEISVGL

[2] = molecular target: T1, Human CC chemokine receptor type 5 …; assay: quartz crystal microbalance (QCM); CCR5 made without added chaperonin; supernatant diluted 20 times and immobilised on a Q-Sense His-tag Capturing Sensor; CCL11 flowed over; 25 °C; 25 mM HEPES, 0.12 M NaCl, 0.2% Brij35, pH 7.6; 1:1 binding model
[3] = molecular target: T1, Human CC chemokine receptor type 5 …; assay: quartz crystal microbalance (QCM); CCR5 made with GroEL alone added to the cell-free reaction; supernatant diluted 20 times and immobilised on a Q-Sense His-tag Capturing Sensor; CCL11 flowed over; 25 °C; 25 mM HEPES, 0.12 M NaCl, 0.2% Brij35, pH 7.6; 1:1 binding model

- Kd [1]: 44 nM
- koff [1]: 0.0002 s⁻¹
- kon [1]: 4500 M⁻¹ s⁻¹
- Kd [2]: 97 nM
- koff [2]: 0.00046 s⁻¹
- kon [2]: 4700 M⁻¹ s⁻¹
- Kd [3]: 55 nM
- koff [3]: 0.00025 s⁻¹
- kon [3]: 4600 M⁻¹ s⁻¹
B1: eotaxin (CCL11) (ligand)
chain: not shown
notes: eotaxin (CCL11)
